Laboratory results: paper PMC9945959

Biological target: Full-length human NF1 isoform 2 (short isoform), recombinant (human) (UniProt P21359)
Assay: cryo-EM structure

stoichiometry N: 2
Substance: Full-length human NF1 isoform 2 (short isoform), recombinant, P21359-2 1-2818
